From patent EP4703474A1, “ANTI-LRRC15 ANTIBODY” (priority 2023, dated 2024)

How the values were obtained:
[1] = tested on: LRRC15-positive human osteosarcoma cell line HuO9; assay: In vivo antitumor effect, HuO9 subcutaneous transplant model; details: tail vein, on Day 10, female SCID mice
Experimental: The antitumor effects of the antibody-drug conjugates were evaluated by using animal models in which cells of the human tumor cell line had been transplanted into immunodeficient mice. 4 to 6 Week-old SCID mice (CB17/Icr-Prkdc[scid]/CrlCrlj, Jackson Laboratory Japan, Inc.) were habituated for 3 days or more under SPF conditions before experimental use. The mice were fed with sterilized solid feed (FR-2, Funabashi Farms Co., Ltd.) and given sterilized tap water (prepared by adding a solution of 5 to 15 ppm sodium hypochlorite). The major and minor diameters of the transplanted tumors were measured twice a week with an electronic digital caliper ([…] Corporation), and the estimated tumor volume was calculated using the following formula. Estimated tumor volume (mm^3) = 1/2 × major diameter (mm) × [minor diameter (mm)]^2 All antibody-drug conjugates were diluted with ABS and administered into the tail vein at doses shown in each Example. In addition, ABS (vehicle) or control hIgG-PBD prepared in Reference Example 4 was administered as the control group, in a similar manner. 5 to 6 Mice were used per group in the experiment. Based on publicly known information, LRRC15-positive human osteosarcoma cell line HuO9 (JCRB) was suspended in Matrigel (Corning Incorporated), 5.0 × 10^6 cells were subcutaneously transplanted into the right flank of female SCID mice (Day 0), and random grouping was performed on Day 10. On the day of grouping, the vehicle, the antibody-drug conjugates […]-PBD, […]-V1-PBD, and […]-V2-PBD prepared in Example 5, or the control hIgG-PBD prepared in Reference Example 4 was administered at a dose of 0.4 mg/kg, and the huM25-MMAE prepared in Reference Example 5 was administered at a dose of 0.4 mg/kg or 3.6 mg/kg into the tail vein. The abscissa indicates the number of days, and the ordinate indicates estimated tumor volume, and the error bars indicate SEM values. […] The antitumor effects of the antibody-drug conjugates were evaluated by using animal models in which cells of a human tumor cell line had been transplanted into immunodeficient mice, or cells of a mouse tumor cell line had been transplanted into immunocompetent mice. 4 to 6 Week-old SCID mice (CB17/Icr-Prkdc[scid]/CrlCrlj, Jackson Laboratory Japan, Inc.), NSG mice (NOD.Cg-Prkdcscid Il2rgtm1Wjl/SzJ, Jackson Laboratory Japan, Inc.), or B6J mice (C57BL/6J, Jackson Laboratory Japan, Inc.) were habituated for 3 days or more under SPF conditions before experimental use. The mice were fed with sterilized solid feed and given sterilized tap water. The major and minor diameters of the transplanted tumors were measured twice a week with an electronic digital caliper (Mitutoyo Corporation), and the estimated tumor volume was calculated using the following formula. Estimated tumor volume (mm^3) = 1/2 × major diameter (mm) × [minor diameter (mm)]^2 All antibody-drug conjugates were diluted with ABS and administered into the tail vein at doses shown in each Example. In addition, ABS (vehicle) or control hIgG-PBD prepared in Reference Example 4 was administered as the control group, in a similar manner. 5 to 6 Mice were used per group in the experiment. Based on publicly known information, LRRC15-positive human osteosarcoma cell line HuO9 (JCRB) was suspended in Matrigel (Corning Incorporated), 5.0 × 10^6 cells were subcutaneously transplanted into the right flank of female SCID mice (Day 0), and random grouping was performed on Day 10. On the day of grouping, a vehicle, the antibody-drug conjugate […]-V1-PBD or […]-V2-PBD prepared in Example 5, or huM25-PBD prepared in Reference Example 6-2 was administered into the tail vein at a dose of 0.3 mg/kg. The abscissa indicates the number of days, and the ordinate indicates estimated tumor volume, and the error bars indicate SEM values.

[2] = tested on: Triple-negative breast carcinoma cell line HCC1806; assay: In vivo antitumor effect, HCC1806 subcutaneous transplant model; details: 0.4 mg/kg, tail vein, on Day 7, female SCID mice
Experimental: The antitumor effects of the antibody-drug conjugates were evaluated by using animal models in which cells of a human tumor cell line had been transplanted into immunodeficient mice, or cells of a mouse tumor cell line had been transplanted into immunocompetent mice. 4 to 6 Week-old SCID mice (CB17/Icr-Prkdc[scid]/CrlCrlj, Jackson Laboratory Japan, Inc.), NSG mice (NOD.Cg-Prkdcscid Il2rgtm1Wjl/SzJ, Jackson Laboratory Japan, Inc.), or B6J mice (C57BL/6J, Jackson Laboratory Japan, Inc.) were habituated for 3 days or more under SPF conditions before experimental use. The mice were fed with sterilized solid feed and given sterilized tap water. The major and minor diameters of the transplanted tumors were measured twice a week with an electronic digital caliper (Mitutoyo Corporation), and the estimated tumor volume was calculated using the following formula. Estimated tumor volume (mm^3) = 1/2 × major diameter (mm) × [minor diameter (mm)]^2 All antibody-drug conjugates were diluted with ABS and administered into the tail vein at doses shown in each Example. In addition, ABS (vehicle) or control hIgG-PBD prepared in Reference Example 4 was administered as the control group, in a similar manner. 5 to 6 Mice were used per group in the experiment. To analyze the LRRC15 expression in mouse tumor models, immunohistochemical staining of LRRC15 was performed. […]

[3] = 0.4 mg/kg, huM25-MMAE at 0.4 mg/kg or 3.6 mg/kg
[4] = 0.3 mg/kg, huM25-PBD at the same dose

Molecule | antitumor effect (estimated tumor volume) [1, 3] | antitumor effect (estimated tumor volume) [2] | antitumor effect (estimated tumor volume) [1, 4] | tumor regression ([1]; 0.4 mg/kg)
H02L01-PBD (conjugate) heavy: EVQLVESGGGLVQPGGSLRLSCAASGFTFRDYYMAWVRQAPGKGLEWVSSIGFDESRTYYADSVKGRFTISRDDSKNTLYLQMNSLRAEDTAVYYCARHGVSYYSGDNWFAYWGQGTLVTVSSASTKGPSVFPLAPSSKSTSGGTAALGCLVKDYFPEPVTVSWNSGALTSGVHTFPAVLQSSGLYSLSSVVTVPSSSLGTQTYICNVNHKPSNTKVDKKVEPKSCDKTHTCPPCPAPEAAGGPSVFLFPPKPKDTLMISRTPEVTCVVVDVSHEDPEVKFNWYVDGVEVHNAKTKPREEQYNSTYRVVSVLTVLHQDWLNGKEYKCKVSNKALAAPIEKTISKAKGQPREPQVYTLPPSREEMTKNQVSLTCLVKGFYPSDIAVEWESNGQPENNYKTTPPVLDSDGSFFLYSKLTVDKSRWQQGNVFSCSVMHEALHNHYTQKSLSLSPGK light: DIQMTQSPSSLSASVGDRVTITCKSSQGLLYSGDQKNYLAWYQQKPGKAPKLLIYWASTRQSGVPSRFSGSGSGTDFTLTISSLQPEDFATYYCQQYYDPPYTFGQGTKVEIKRTVAAPSVFIFPPSDEQLKSGTASVVCLLNNFYPREAKVQWKVDNALQSGNSQESVTEQDSKDSTYSLSSTLTLSKADYEKHKVYACEVTHQGLSSPVTKSFNRGEC | antitumor activity higher than that of the vehicle, the control hIgG-PBD, and huM25-MMAE | antitumor activity higher than that of the vehicle |  | 
H02L01-V2-PBD (conjugate) heavy: EVQLVESGGGLVQPGGSLRLSCAASGFTFRDYYMAWVRQAPGKGLEWVSSIGFDESRTYYADSVKGRFTISRDDSKNTLYLQMNSLRAEDTAVYYCARHGVSRYSGDNWFAYWGQGTLVTVSSASTKGPSVFPLAPSSKSTSGGTAALGCLVKDYFPEPVTVSWNSGALTSGVHTFPAVLQSSGLYSLSSVVTVPSSSLGTQTYICNVNHKPSNTKVDKKVEPKSCDKTHTCPPCPAPEAAGGPSVFLFPPKPKDTLMISRTPEVTCVVVDVSHEDPEVKFNWYVDGVEVHNAKTKPREEQYNSTYRVVSVLTVLHQDWLNGKEYKCKVSNKALAAPIEKTISKAKGQPREPQVYTLPPSREEMTKNQVSLTCLVKGFYPSDIAVEWESNGQPENNYKTTPPVLDSDGSFFLYSKLTVDKSRWQQGNVFSCSVMHEALHNHYTQKSLSLSPGK light: DIQMTQSPSSLSASVGDRVTITCKSSQGLLYSGDQKNYLAWYQQKPGKAPKLLIYWASTRQSGVPSRFSGSGSGTDFTLTISSLQPEDFATYYCQQYYDPPYTFGQGTKVEIKRTVAAPSVFIFPPSDEQLKSGTASVVCLLNNFYPREAKVQWKVDNALQSGNSQESVTEQDSKDSTYSLSSTLTLSKADYEKHKVYACEVTHQGLSSPVTKSFNRGEC | antitumor activity higher than that of the vehicle, the control hIgG-PBD, and huM25-MMAE |  | antitumor activity higher than that of the vehicle and huM25-PBD | lead to tumor regression
H02L01-V1-PBD (conjugate) heavy: EVQLVESGGGLVQPGGSLRLSCAASGFTFRDYYMAWVRQAPGKGLEWVSSIGFDESRTYYADSVKGRFTISRDDSKNTLYLQMNSLRAEDTAVYYCARHGVSKYSGDNWFAYWGQGTLVTVSSASTKGPSVFPLAPSSKSTSGGTAALGCLVKDYFPEPVTVSWNSGALTSGVHTFPAVLQSSGLYSLSSVVTVPSSSLGTQTYICNVNHKPSNTKVDKKVEPKSCDKTHTCPPCPAPEAAGGPSVFLFPPKPKDTLMISRTPEVTCVVVDVSHEDPEVKFNWYVDGVEVHNAKTKPREEQYNSTYRVVSVLTVLHQDWLNGKEYKCKVSNKALAAPIEKTISKAKGQPREPQVYTLPPSREEMTKNQVSLTCLVKGFYPSDIAVEWESNGQPENNYKTTPPVLDSDGSFFLYSKLTVDKSRWQQGNVFSCSVMHEALHNHYTQKSLSLSPGK light: DIQMTQSPSSLSASVGDRVTITCKSSQGLLYSGDQKNYLAWYQQKPGKAPKLLIYWASTRQSGVPSRFSGSGSGTDFTLTISSLQPEDFATYYCQQYYDPPYTFGQGTKVEIKRTVAAPSVFIFPPSDEQLKSGTASVVCLLNNFYPREAKVQWKVDNALQSGNSQESVTEQDSKDSTYSLSSTLTLSKADYEKHKVYACEVTHQGLSSPVTKSFNRGEC | antitumor activity higher than that of the vehicle, the control hIgG-PBD, and huM25-MMAE | antitumor activity higher than that of the vehicle | antitumor activity higher than that of the vehicle and huM25-PBD | lead to tumor regression
